Results on 2 molecules are retold here after paper PMC10411901, “FIRRM cooperates with FIGNL1 to promote RAD51 disassembly during DNA repair” (Science Advances, 2023).

Data set [1] deals with T1, recombinant full-length FIRRM (human, UniProt Q9NSG2 1-853).
T1 construct: full-length codon-optimized human FIRRM from GenScript; Insect cell form: modified pFastBac dual vector with an N-terminal GFP tag removable with TEV protease; also called iFIRRM (form from insect cells); source: purified from bacteria (E. coli BL21RP) or Sf9 insect cells
T1 sequence (looked up): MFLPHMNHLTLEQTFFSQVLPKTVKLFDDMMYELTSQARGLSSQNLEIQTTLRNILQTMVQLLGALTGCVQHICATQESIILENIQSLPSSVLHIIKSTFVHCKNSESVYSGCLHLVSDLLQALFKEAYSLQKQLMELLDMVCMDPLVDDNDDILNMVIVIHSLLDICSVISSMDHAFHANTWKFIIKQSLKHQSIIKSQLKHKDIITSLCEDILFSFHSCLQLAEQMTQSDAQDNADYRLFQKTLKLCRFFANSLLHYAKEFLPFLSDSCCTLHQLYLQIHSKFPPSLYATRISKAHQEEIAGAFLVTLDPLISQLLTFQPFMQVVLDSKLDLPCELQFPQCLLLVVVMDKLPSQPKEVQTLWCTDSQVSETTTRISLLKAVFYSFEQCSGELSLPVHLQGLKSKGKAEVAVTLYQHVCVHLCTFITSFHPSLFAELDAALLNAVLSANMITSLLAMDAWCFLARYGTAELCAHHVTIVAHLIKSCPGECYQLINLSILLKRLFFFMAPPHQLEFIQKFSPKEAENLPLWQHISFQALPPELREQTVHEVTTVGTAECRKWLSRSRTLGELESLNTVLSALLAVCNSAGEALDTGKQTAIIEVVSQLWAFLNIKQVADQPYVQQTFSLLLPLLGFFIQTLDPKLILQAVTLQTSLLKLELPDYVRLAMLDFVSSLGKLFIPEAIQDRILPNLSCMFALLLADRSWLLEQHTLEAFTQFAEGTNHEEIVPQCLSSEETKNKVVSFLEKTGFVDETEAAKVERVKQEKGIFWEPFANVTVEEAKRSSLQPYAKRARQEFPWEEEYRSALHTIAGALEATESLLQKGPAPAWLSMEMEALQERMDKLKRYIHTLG
The experiment in a line: co-IP; purified recombinant RAD51, FIRRM and FIGNL1 together; anti-RAD51 14B4 on protein A/G Sepharose; IPB buffer (20 mM KPO4 pH 7.4, 175 mM KCl, 0.5 mM EDTA, 0.5% NP-40, 10% glycerol, 1 mM DTT); Western blot. Conditions: both partners purified.

Data set [2] concerns the molecule itself. The experiment in a line: cryo-EM two-dimensional class averages; FIGNL1 10 μM in 1× PBS with 2 mM MgCl2 and 1 mM AMP-PNP on graphene oxide lacey carbon grids; 2D classes from 1287 particles; hexamer model from an AlphaFold monomer.

B1: recombinant full-length FIGNL1 (natural protein, human, UniProt Q6PIW4 1-674, looked up)
chain: MQTSSSRSVHLSEWQKNYFAITSGICTGPKADAYRAQILRIQYAWANSEISQVCATKLFKKYAEKYSAIIDSDNVESGLNNYAENILTLAGSQQTDSDKWQSGLSINNVFKMSSVQKMMQAGKKFKDSLLEPALASVVIHKEATVFDLPKFSVCGSSQESDSLPNSAHDRDRTQDFPESNRLKLLQNAQPPMVTNTARTCPTFSAPVGESATAKFHVTPLFGNVKKENHSSAKENIGLNVFLSNQSCFPAACENPQRKSFYGSGTIDALSNPILNKACSKTEDNGPKEDSSLPTFKTAKEQLWVDQQKKYHQPQRASGSSYGGVKKSLGASRSRGILGKFVPPIPKQDGGEQNGGMQCKPYGAGPTEPAHPVDERLKNLEPKMIELIMNEIMDHGPPVNWEDIAGVEFAKATIKEIVVWPMLRPDIFTGLRGPPKGILLFGPPGTGKTLIGKCIASQSGATFFSISASSLTSKWVGEGEKMVRALFAVARCQQPAVIFIDEIDSLLSQRGDGEHESSRRIKTEFLVQLDGATTSSEDRILVVGATNRPQEIDEAARRRLVKRLYIPLPEASARKQIVINLMSKEQCCLSEEEIEQIVQQSDAFSGADMTQLCREASLGPIRSLQTADIATITPDQVRPIAYIDFENAFRTVRPSVSPKDLELYENWNKTFGCGK
notes: Insect cell form: modified pFastBac dual vector with an N-terminal GFP tag removable with TEV protease; source: purified from bacteria (E. coli BL21RP) or Sf9 insect cells
Regarding B1, the binding result in data set [1] was “binds”.

B2: FIGNL1 purified from insect cells (natural protein, human, UniProt Q6PIW4 1-674, looked up)
chain: MQTSSSRSVHLSEWQKNYFAITSGICTGPKADAYRAQILRIQYAWANSEISQVCATKLFKKYAEKYSAIIDSDNVESGLNNYAENILTLAGSQQTDSDKWQSGLSINNVFKMSSVQKMMQAGKKFKDSLLEPALASVVIHKEATVFDLPKFSVCGSSQESDSLPNSAHDRDRTQDFPESNRLKLLQNAQPPMVTNTARTCPTFSAPVGESATAKFHVTPLFGNVKKENHSSAKENIGLNVFLSNQSCFPAACENPQRKSFYGSGTIDALSNPILNKACSKTEDNGPKEDSSLPTFKTAKEQLWVDQQKKYHQPQRASGSSYGGVKKSLGASRSRGILGKFVPPIPKQDGGEQNGGMQCKPYGAGPTEPAHPVDERLKNLEPKMIELIMNEIMDHGPPVNWEDIAGVEFAKATIKEIVVWPMLRPDIFTGLRGPPKGILLFGPPGTGKTLIGKCIASQSGATFFSISASSLTSKWVGEGEKMVRALFAVARCQQPAVIFIDEIDSLLSQRGDGEHESSRRIKTEFLVQLDGATTSSEDRILVVGATNRPQEIDEAARRRLVKRLYIPLPEASARKQIVINLMSKEQCCLSEEEIEQIVQQSDAFSGADMTQLCREASLGPIRSLQTADIATITPDQVRPIAYIDFENAFRTVRPSVSPKDLELYENWNKTFGCGK
notes: The GFP tag is removable with tobacco etch virus protease; the results speak of the protein from insect cells; source: Sf9 insect cells (baculovirus), purified (gel filtration)
As to B2, in data set [2], the “stoichiometry N” value stood at 6.

Broadly, the stoichiometry N is the number of molecules, sites or subunits per partner or assembly.
